Data: PMC12852852

Biological target: hClpX E285A (human) (UniProt O76031)

- stoichiometry N: 6
Substance: hClpX E285A (from UniProt O76031 57-633) (enzyme)
